Patent WO2019173771A1

Molecular target: human CD147 on human cell lines (KYSE-70, H292, LS174T and other human-derived cell lines) (human) (UniProt P35613)
Experiment: FACS on the human KYSE-70 esophageal epithelial cell line, Alexa Fluor 647 anti-human IgG

B1: humanized anti-human CD147 hu3A11 antibody (3A11 Lc1 / Hc1) (antibody, V domains shown)
VH: EVQLVESGGGLVQPGGSLRLSCAASGFTFSNYWMDWVRQAPGKGLEWVGEIRLKSYNYATHYAASVKGRFTISRDDSKNSVYLQMNSLKTEDTAVYYCTAAGTDYWGQGTLVTVSS
VL: DIQMTQSPSSLSASVGDRVTITCRASQSVRTDVGWYQQKPGKAPKLLIYYSSNRYTGVPSRFSGSGSGTDFTLTISSLQPEDFATYYCQQDYSSPYTFGQGTKLEIK
**Q.** How did the Kd turn out when B1 was run?
**A.** The Kd was 1.65 nM.
